FireProtDB (doi:10.1021/bi020461s)

B1: Glutamate dehydrogenase, P96110 (parent)
chain: MPEKSLYEMAVEQFNRAASLMDLESDLAEVLRRPKRVLIVEFPVRMDDGHVEVFTGYRVQHNVARGPAKGGIRYHPDVTLDEVKALAFWMTWKTAVMNLPFGGGKGGVRVDPKKLSRNELERLSRRFFSEIQVIIGPYNDIPAPDVNTNADVMAWYMDTYSMNVGHTVLGIVTGKPVELGGSKGREEATGRGVKVCAGLAMDVLGIDPKKATVAVQGFGNVGQFAALLISQELGSKVVAVSDSRGGIYNPEGFDVEELIRYKKEHGTVVTYPKGERITNEELLELDVDILVPAALEGAIHAGNAERIKAKAVVEGANGPTTPEADEILSRRGILVVPDILANAGGVTVSYFEWVQDLQSFFWDLDQVRNALEKMMKGAFNDVMKVKEKYNVDMRTAAYILAIDRVAYATKKRGIYP

Variants of: B1
Conditions: Thermotoga maritima (strain ATCC 43589 / DSM 3109 / JCM 10099 / NBRC 100826 / MSB8), pH 7, CD, sodium phosphate 20 mM, reversible: yes, structure 1B26, whole UniProt chain shown

Variant	ddG of mutation (higher = less stable) (20 °C, GdnHCl) [kcal/mol]	denaturant m value (20 °C, GdnHCl) [kcal/mol/M]	denaturant midpoint (higher = more stable) (20 °C, GdnHCl) [M]	unfolding free energy (20 °C, GdnHCl) [kcal/mol]	ddG of mutation (higher = less stable) (20 °C, Urea) [kcal/mol]	denaturant m value (20 °C, Urea) [kcal/mol/M]	denaturant midpoint (higher = more stable) (20 °C, Urea) [M]	unfolding free energy (20 °C, Urea) [kcal/mol]	ddG of mutation (higher = less stable) (69.5 °C, Thermal) [kcal/mol]	Tm (Thermal) [°C]	change of melting temperature, mutant - wild type (higher = more stable) (Thermal) [°C]	unfolding enthalpy (van 't Hoff) (Thermal) [kcal/mol]
R191A E232A	0.86	3.08	1.44	4.26	0.53	1.53	2.96	4.32	0.15	68.5	-1	44.6
K194A E232A	-0.92	2.73	2.04	6.04	-0.51	1.42	3.67	5.36		71.2	1.7	52.7
E232A	0.95	3	1.41	4.17	0.35	1.6	3.08	4.5	0.17	68.4	-1.1	41
R191A E232A K194A	-0.03	2.72	1.74	5.15	-0.04	1.42	3.35	4.89	-0.2	70.8	1.3	50.6
K194A	-0.98	2.74	2.06	6.1					-0.23	71	1.5	53.8
R191A	0.41	2.63	1.59	4.71	0.32	1.7	3.1	4.53	0.34	67.3	-2.2	49.5
R191A K194A					0.16	1.33	3.21	4.69		67.5	-2	53.2
